Target: folate binding protein (FBP) (UniProt P15328)
Experiment: cell-based or functional assay

Chain of UniProt P15328 (P15328 25-234 limits assumed): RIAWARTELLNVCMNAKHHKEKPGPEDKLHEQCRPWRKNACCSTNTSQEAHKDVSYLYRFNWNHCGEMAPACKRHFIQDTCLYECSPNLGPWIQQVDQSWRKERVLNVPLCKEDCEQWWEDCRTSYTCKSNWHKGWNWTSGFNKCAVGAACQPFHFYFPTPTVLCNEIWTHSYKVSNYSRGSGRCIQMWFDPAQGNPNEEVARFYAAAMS

For MOv-γ chimeric receptor, the IFN-γ secretion (pg/ml) of MOv-γ transduced mouse T cells in response to 24JK-FBP cells (parental 24JK: 0; non-transduced T cells: 0) was 5200 pg/mL, the IFN-γ secretion (pg/ml) of MOv-γ transduced mouse T cells in response to IGROV (ovarian FBP +) cells (non-transduced T cells: 0) was 37500 pg/mL and the share of MOv-γ transduced human T cell clones (patient 410) reactive against the ovarian cancer target was 67 % of clones.

Source: US7723111
